In US20110263454A1, “Methods of Identifying Functional Characteristics of Promoters, Transcription Modifying Proteins and Transcription Modulating Agents” (Salk Institute for Biological Studies, priority 2008, published 2011):

Tests used:
hIRF7 promoter = assay: NHR-promoter luciferase screen, hIRF7 promoter; assay type: cell-based, human; conditions: for Normalized Luc. act., normalized to control / Luc. act., normalized to lacZ: IRF7 promoter reporter; for Normalized Luc. act., normalized to control: HR without or with its ligand, relative to control; for Luc. act., normalized to lacZ: hormone receptor (HR) without or with its ligand; for hIRF7 promoter reporter activity: transcription factor +/- ligand, control = 1.00
Procedure, shortened: (§1)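 CV-1 cells were co-transfected with 50 ng NHR (homodimer or NHR/RXR heterodimer), 100 ng promoter-luciferase construct and 50 ng LacZ. Luciferase was normalized to LacZ and to a no-NHR/no-ligand control.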

hCYP3A4 promoter = assay: NHR-promoter luciferase screen, hCYP3A4 promoter; assay type: cell-based, human; conditions: for Luc. act., normalized to lacZ / Normalized Luc. act., normalized to control: CYP3A4 promoter, HR/ligand component; for hCYP3A4 promoter reporter activity: transcription factor +/- ligand, control = 1.00
Procedure, shortened: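 Luciferase reporter read-out after co-expression in CV-1 cells of V5H6-tagged receptor (alone or with RXR), the promoter construct and LacZ. Values are luciferase/LacZ relative to a control lacking NHR or ligand; orphan receptors tested ligand-free.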

hG6PD promoter = assay: NHR-promoter luciferase screen, hG6PD promoter; assay type: cell-based, human; conditions: for Luc. act., normalized to lacZ / Normalized Luc. act., normalized to control: G6PD promoter reporter, co-transfected HR, without or with its ligand; for Normalized Luc. act., normalized to control: relative to control; for luciferase activity normalized to lacZ activity and to a control, hG6PD: hG6PD promoter-luciferase, CV-1 cells, NHR +/- ligand, control = 1.00
Procedure, shortened: as §1

mUCP2 promoter = assay: NHR-promoter luciferase screen, mUCP2 promoter; assay type: cell-based, mouse; conditions: for Luc. act., normalized to lacZ / Normalized Luc. act., normalized to control: mUCP2 promoter reporter, co-transfected HR, with or without its ligand; for Normalized Luc. act., normalized to control: relative to control; for luciferase activity normalized to lacZ activity and to a control, mUCP2: mUCP2 promoter-luciferase, CV-1 cells, NHR +/- ligand, control = 1.00
Procedure, shortened: as §1

hTNFa promoter = assay: NHR-promoter luciferase screen, hTNFa promoter; assay type: cell-based, human; conditions: for Luc. act., normalized to lacZ / Normalized Luc. act., normalized to control: TNFa promoter, HR component without or with ligand; for hTNFa promoter reporter activity: transcription factor +/- ligand, control = 1.00
Procedure, shortened: as §1

RevErba promoter = assay: NHR-promoter luciferase screen, RevErba (RVRa) promoter; assay type: cell-based; set-up: key to mRevErba promoter reporter activity / Normalized Luc. act., normalized to control: luciferase activity normalized to lacZ and to control (no NHR/ligand); conditions: for Luc. act., normalized to lacZ / Normalized Luc. act., normalized to control / negative reciprocal of normalized Luc. act. (fold repression; Table 33) / normalized Luc. act. on a logarithmic scale (column without head, Table 33): RVRa promoter; for Luc. act., normalized to lacZ / Normalized Luc. act., normalized to control: HR component without or with ligand; for negative reciprocal of normalized Luc. act. (fold repression; Table 33): given only where activity is below control; for normalized Luc. act. on a logarithmic scale (column without head, Table 33): log10 of activity normalized to control; for mRevErba promoter reporter activity: transcription factor +/- ligand, control = 1.00
Procedure, shortened: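 Reporter readout: RevErbα promoter-driven luciferase, corrected for LacZ transfection efficiency and expressed relative to a no-receptor or no-ligand control. Receptors (V5H6-tagged, pcDNA3.1), alone or with RXR, plus any ligand, were expressed in CV-1 cells.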

B1: SHP: Small Heterodimer Partner (NR0B2), cDNA driver (protein, UniProt Q15466 1-257, looked up)
Nuclear receptor subfamily 0 …: MSTSQPGACPCQGAASRPAILYALLSSSLKAVPRPRSRCLCRQHRPVQLCAPHRTCREALDVLAKTVAFLRNLPSFWQLPPQDQRRLLQGCWGPLFLLGLAQDAVTFEVAEAPVPSILKKILLEEPSSSGGSGQLPDRPQPSLAAVQWLQCCLESFWSLELSPKEYACLKGTILFNPDVPGLQAASHIGHLQQEAHWVLCEVLEPWCPAAQGRLTRVLLTASTLKSIPTSLLGDLFFRPIIGDVDIAGLLGDMLLLR
- Normalized Luc. act., normalized to control (hIRF7 promoter): 1.1
- Luc. act., normalized to lacZ (hIRF7 promoter): 29.1
- hIRF7 promoter reporter activity (hIRF7 promoter): 1.10
- Luc. act., normalized to lacZ (hCYP3A4 promoter): 4.6
- Normalized Luc. act., normalized to control (hCYP3A4 promoter): 1.0
- hCYP3A4 promoter reporter activity (hCYP3A4 promoter): 1.04
- Luc. act., normalized to lacZ (hG6PD promoter): 43.2
- Normalized Luc. act., normalized to control (hG6PD promoter): 1.2
- luciferase activity normalized to lacZ activity and to a control, hG6PD (hG6PD promoter): 1.15
- Luc. act., normalized to lacZ (mUCP2 promoter): 164.1
- Normalized Luc. act., normalized to control (mUCP2 promoter): 1.5
- luciferase activity normalized to lacZ activity and to a control, mUCP2 (mUCP2 promoter): 1.49
- Luc. act., normalized to lacZ (hTNFa promoter): 914.4
- Normalized Luc. act., normalized to control (hTNFa promoter): 0.9
- hTNFa promoter reporter activity (hTNFa promoter): 0.93
- Luc. act., normalized to lacZ (RevErba promoter): 22.7
- Normalized Luc. act., normalized to control (RevErba promoter): 0.8
- negative reciprocal of normalized Luc. act. (fold repression; Table 33) (RevErba promoter): −1.229
- normalized Luc. act. on a logarithmic scale (column without head, Table 33) (RevErba promoter): −0.09
- mRevErba promoter reporter activity (RevErba promoter): 0.81

B2: NR4a3: NR4a3 (NR4A3; NOR1), nuclear hormone receptor cDNA driver (protein, UniProt Q92570 1-626, looked up)
Nuclear receptor subfamily 4 …: MPCVQAQYSPSPPGSSYAAQTYSSEYTTEIMNPDYTKLTMDLGSTEITATATTSLPSISTFVEGYSSNYELKPSCVYQMQRPLIKVEEGRAPSYHHHHHHHHHHHHHHQQQHQQPSIPPASSPEDEVLPSTSMYFKQSPPSTPTTPAFPPQAGALWDEALPSAPGCIAPGPLLDPPMKAVPTVAGARFPLFHFKPSPPHPPAPSPAGGHHLGYDPTAAAALSLPLGAAAAAGSQAAALESHPYGLPLAKRAAPLAFPPLGLTPSPTASSLLGESPSLPSPPSRSSSSGEGTCAVCGDNAACQHYGVRTCEGCKGFFKRTVQKNAKYVCLANKNCPVDKRRRNRCQYCRFQKCLSVGMVKEVVRTDSLKGRRGRLPSKPKSPLQQEPSQPSPPSPPICMMNALVRALTDSTPRDLDYSRYCPTDQAAAGTDAEHVQQFYNLLTASIDVSRSWAEKIPGFTDLPKEDQTLLIESAFLELFVLRLSIRSNTAEDKFVFCNGLVLHRLQCLRGFGEWLDSIKDFSLNLQSLNLDIQALACLSALSMITERHGLKEPKRVEELCNKITSSLKDHQSKGQALEPTESKVLGALVELRKICTLGLQRIFYLKLEDLVSPPSIIDKLFLDTLPF
- Normalized Luc. act., normalized to control (hIRF7 promoter): 0.9
- Luc. act., normalized to lacZ (hIRF7 promoter): 24.9
- hIRF7 promoter reporter activity (hIRF7 promoter): 0.95
- Luc. act., normalized to lacZ (hCYP3A4 promoter): 4.2
- Normalized Luc. act., normalized to control (hCYP3A4 promoter): 0.9
- hCYP3A4 promoter reporter activity (hCYP3A4 promoter): 0.93
- Luc. act., normalized to lacZ (hG6PD promoter): 43.4
- Normalized Luc. act., normalized to control (hG6PD promoter): 1.2
- luciferase activity normalized to lacZ activity and to a control, hG6PD (hG6PD promoter): 1.16
- Luc. act., normalized to lacZ (mUCP2 promoter): 150.1
- Normalized Luc. act., normalized to control (mUCP2 promoter): 1.4
- luciferase activity normalized to lacZ activity and to a control, mUCP2 (mUCP2 promoter): 1.37
- Luc. act., normalized to lacZ (hTNFa promoter): 691.0
- Normalized Luc. act., normalized to control (hTNFa promoter): 0.7
- hTNFa promoter reporter activity (hTNFa promoter): 0.70
- Luc. act., normalized to lacZ (RevErba promoter): 14.7
- Normalized Luc. act., normalized to control (RevErba promoter): 0.5
- negative reciprocal of normalized Luc. act. (fold repression; Table 33) (RevErba promoter): −1.9
- normalized Luc. act. on a logarithmic scale (column without head, Table 33) (RevErba promoter): −0.28
- mRevErba promoter reporter activity (RevErba promoter): 0.53

B3: DAX-1: DAX1 (NR0B1), cDNA driver (protein, UniProt P51843 1-470, looked up)
Nuclear receptor subfamily 0 …: MAGENHQWQGSILYNMLMSAKQTRAAPEAPETRLVDQCWGCSCGDEPGVGREGLLGGRNVALLYRCCFCGKDHPRQGSILYSMLTSAKQTYAAPKAPEATLGPCWGCSCGSDPGVGRAGLPGGRPVALLYRCCFCGEDHPRQGSILYSLLTSSKQTHVAPAAPEARPGGAWWDRSYFAQRPGGKEALPGGRATALLYRCCFCGEDHPQQGSTLYCVPTSTNQAQAAPEERPRAPWWDTSSGALRPVALKSPQVVCEAASAGLLKTLRFVKYLPCFQVLPLDQQLVLVRNCWASLLMLELAQDRLQFETVEVSEPSMLQKILTTRRRETGGNEPLPVPTLQHHLAPPAEARKVPSASQVQAIKCFLSKCWSLNISTKEYAYLKGTVLFNPDVPGLQCVKYIQGLQWGTQQILSEHTRMTHQGPHDRFIELNSTLFLLRFINANVIAELFFRPIIGTVSMDDMMLEMLCTKI
- Normalized Luc. act., normalized to control (hIRF7 promoter): 1.1
- Luc. act., normalized to lacZ (hIRF7 promoter): 27.9
- hIRF7 promoter reporter activity (hIRF7 promoter): 1.06
- Luc. act., normalized to lacZ (hCYP3A4 promoter): 5.7
- Normalized Luc. act., normalized to control (hCYP3A4 promoter): 1.3
- hCYP3A4 promoter reporter activity (hCYP3A4 promoter): 1.29
- Luc. act., normalized to lacZ (hG6PD promoter): 46.0
- Normalized Luc. act., normalized to control (hG6PD promoter): 1.2
- luciferase activity normalized to lacZ activity and to a control, hG6PD (hG6PD promoter): 1.23
- Luc. act., normalized to lacZ (mUCP2 promoter): 158.6
- Normalized Luc. act., normalized to control (mUCP2 promoter): 1.4
- luciferase activity normalized to lacZ activity and to a control, mUCP2 (mUCP2 promoter): 1.44
- Luc. act., normalized to lacZ (hTNFa promoter): 854.8
- Normalized Luc. act., normalized to control (hTNFa promoter): 0.9
- hTNFa promoter reporter activity (hTNFa promoter): 0.87
- Luc. act., normalized to lacZ (RevErba promoter): 29.4
- Normalized Luc. act., normalized to control (RevErba promoter): 1.1
- normalized Luc. act. on a logarithmic scale (column without head, Table 33) (RevErba promoter): 0.02
- mRevErba promoter reporter activity (RevErba promoter): 1.05

B4: GCNF: Germ Cell Nuclear Factor (NR6A1, GCNF1), cDNA driver (protein, UniProt Q15406 1-480, looked up)
Nuclear receptor subfamily 6 …: MERDEPPPSGGGGGGGSAGFLEPPAALPPPPRNGFCQDELAELDPGTISVSDDRAEQRTCLICGDRATGLHYGIISCEGCKGFFKRSICNKRVYRCSRDKNCVMSRKQRNRCQYCRLLKCLQMGMNRKAIREDGMPGGRNKSIGPVQISEEEIERIMSGQEFEEEANHWSNHGDSDHSSPGNRASESNQPSPGSTLSSSRSVELNGFMAFREQYMGMSVPPHYQYIPHLFSYSGHSPLLPQQARSLDPQSYSLIHQLLSAEDLEPLGTPMLIEDGYAVTQAELFALLCRLADELLFRQIAWIKKLPFFCELSIKDYTCLLSSTWQELILLSSLTVYSKQIFGELADVTAKYSPSDEELHRFSDEGMEVIERLIYLYHKFHQLKVSNEEYACMKAINFLNQDIRGLTSASQLEQLNKRYWYICQDFTEYKYTHQPNRFPDLMMCLPEIRYIAGKMVNVPLEQLPLLFKVVLHSCKTSVGKE
- Normalized Luc. act., normalized to control (hIRF7 promoter): 1.1
- Luc. act., normalized to lacZ (hIRF7 promoter): 28.4
- hIRF7 promoter reporter activity (hIRF7 promoter): 1.08
- Luc. act., normalized to lacZ (hCYP3A4 promoter): 4.5
- Normalized Luc. act., normalized to control (hCYP3A4 promoter): 1.0
- hCYP3A4 promoter reporter activity (hCYP3A4 promoter): 1.02
- Luc. act., normalized to lacZ (hG6PD promoter): 46.1
- Normalized Luc. act., normalized to control (hG6PD promoter): 1.2
- luciferase activity normalized to lacZ activity and to a control, hG6PD (hG6PD promoter): 1.23
- Luc. act., normalized to lacZ (mUCP2 promoter): 139.9
- Normalized Luc. act., normalized to control (mUCP2 promoter): 1.3
- luciferase activity normalized to lacZ activity and to a control, mUCP2 (mUCP2 promoter): 1.27
- Luc. act., normalized to lacZ (hTNFa promoter): 1203.7
- Normalized Luc. act., normalized to control (hTNFa promoter): 1.2
- hTNFa promoter reporter activity (hTNFa promoter): 1.22
- Luc. act., normalized to lacZ (RevErba promoter): 25.7
- Normalized Luc. act., normalized to control (RevErba promoter): 0.9
- negative reciprocal of normalized Luc. act. (fold repression; Table 33) (RevErba promoter): −1.087
- normalized Luc. act. on a logarithmic scale (column without head, Table 33) (RevErba promoter): −0.04
- mRevErba promoter reporter activity (RevErba promoter): 0.92
